Results: patent US20120093813A1 (Pfizer, published 2012)
Where “and” joins values, the source holds several entries; their conditions need not be identical. Identical values can stand only once.

What was measured:
Notch1 of HPB-ALL cells = Notch1 of HPB-ALL cells (human, UniProt P46531 19-2555); experiment: cell-based or functional assay
murine Notch1-NRRHD [1] = target: T1, murine Notch1-NRRHD (mouse, UniProt Q01705 19-33; Q01705 1443-1723); experiment: heading printed under Table 3; it introduces the following ELISA experiment with human and murine Notch1-NRRHD
T1 construct: domain: Notch1-NRRHD (nucleotide 1-99);domain: Notch1-NRRHD (nucleotide 4327 to 5169); Nucleotide limits only; if counted from the start codon they are residues 1-33 and 1443-1723 (my conversion); Used as conditioned medium; also called MuN1-NRRHD; mouse Notch1
T1 sequence (looked up): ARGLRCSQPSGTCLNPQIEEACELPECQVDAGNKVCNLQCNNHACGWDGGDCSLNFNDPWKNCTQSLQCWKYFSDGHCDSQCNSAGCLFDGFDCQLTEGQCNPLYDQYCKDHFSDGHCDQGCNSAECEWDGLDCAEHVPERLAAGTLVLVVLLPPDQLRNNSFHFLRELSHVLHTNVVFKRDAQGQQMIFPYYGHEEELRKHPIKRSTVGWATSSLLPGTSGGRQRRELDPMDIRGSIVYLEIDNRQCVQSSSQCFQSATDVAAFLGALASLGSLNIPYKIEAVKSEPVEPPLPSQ
Text: (§1) We further made domain-swap chimeric Notch1-NRRHD expression constructs using the human Notch1-NRRHD sequence (Nucleotide 1-129 and 4338-5202, NCBI Accession # NM_{—}017617) as frame work, systematically exchanged the human Lin-A, Lin-B or HD-C domains with the corresponding mouse domains.

[2] = target: T2, Notch1 chimeric antigen, HD-N domain swapped with corresponding Notch2 domain; experiment: ELISA, conditioned medium of chimeric antigen coated, 300 ng mAb per well
T2 construct: Used as conditioned medium of transfected 293-F cells
Experimental: (§2) For understanding the mechanism of action by Notch1-antagonist mAb, binding epitopes of Notch1-antagonist mAbs were analyzed by domain swap and ELISA binding assay. The Notch1-NRR-TM(−)/Fc protein was divided into six domains: EGF (including EGF35-36), Lin12-A (or Lin-A), Lin-B, Lin-C, heterodimerization domain-N (or HD-N) and HD-C (FIG. 5). Each of the domains were swapped for that corresponding to human Notch2 by PCR synthesis in a series of chimeric Notch1-NRR-TM(−)/Fc expression constructs. The domain-swap plasmids were transfected in Freestyle™ 293-F cells (Invitrogen, Inc., Calsbad, Calif.) using Freestyle™ Max Reagent (Invitrogen) as described above in Example 1. After being cultured for three days, the conditioned media was subjected to Western blot analysis and an ELISA binding assay by Notch1 mAbs.
(§3) In ELISA assay, the 100 microliters of the conditioned medium from the above antigen plasmids-transfected cell culture were loaded in each well of the 96-well plate, and plates were incubated at room temperature for 4 hours or 4° C. for overnight. The condition medium was then removed from the coated plates. For primary antibody binding, 300 ng of each mAb (Table 3) in 100 microliters of PBS was added to the coated well. The rest of the ELISA procedure is the same as described in Example 2.

[3] = target: T3, Notch1 chimeric antigen, Lin-A domain swapped with corresponding Notch2 domain; experiment: as above
T3 construct: Used as conditioned medium of transfected 293-F cells
Experimental: as §2, §3

[4] = target: T4, Notch1 chimeric antigen, EGF domain swapped with corresponding Notch2 domain; experiment: as above
T4 construct: Used as conditioned medium of transfected 293-F cells
Experimental: as §2, §3

[5] = target: T5, Notch1 chimeric antigen, HD-C domain swapped with corresponding Notch2 domain; experiment: as above
T5 construct: Used as conditioned medium of transfected 293-F cells
Experimental: as §2, §3

[6] = target: T6, Notch1 chimeric antigen, Lin-C domain swapped with corresponding Notch2 domain; experiment: as above
T6 construct: Used as conditioned medium of transfected 293-F cells
Experimental: as §2, §3

[7] = target: T7, Notch1 chimeric antigen, HD-C domain swapped with murine sequence; experiment: ELISA on coated conditioned medium
T7 construct: also called Mu/HD-C
Text: as §1

human Notch1-NRRHD = target: T8, human Notch1-NRRHD (human, UniProt P46531 19-43; P46531 1446-1733); experiment: ELISA on coated conditioned medium
T8 construct: domain: Notch1-NRRHD (nucleotide 1-129);domain: Notch1-NRRHD (nucleotide 4338-5202); If counted from the start codon they are about residues 1-43 and 1447-1734 (my conversion); Used as conditioned medium; also called huN1-NRRHD; human Notch1 antigen
T8 sequence (looked up): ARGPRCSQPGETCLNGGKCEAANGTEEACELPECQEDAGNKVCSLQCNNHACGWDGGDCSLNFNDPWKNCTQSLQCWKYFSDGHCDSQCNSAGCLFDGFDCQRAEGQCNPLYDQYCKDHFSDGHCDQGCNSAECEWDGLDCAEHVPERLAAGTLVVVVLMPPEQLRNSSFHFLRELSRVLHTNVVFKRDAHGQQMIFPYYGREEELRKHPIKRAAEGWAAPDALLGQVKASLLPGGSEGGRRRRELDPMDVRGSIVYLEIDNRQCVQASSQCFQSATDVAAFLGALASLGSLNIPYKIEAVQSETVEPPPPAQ
Text: as §1

murine Notch1-NRRHD [8] = target: T1, murine Notch1-NRRHD; experiment: ELISA on coated conditioned medium
Text: as §1

[9] = target: T9, Notch1 chimeric antigen, Lin-B domain swapped with murine sequence; experiment: ELISA on coated conditioned medium
T9 construct: also called Mu/Lin-B
Text: as §1

[10] = target: T10, N1-NRR-TM(-)/Fc fusion protein (human); experiment: SPR, Biacore 3000, N1-NRR-TM(-)Fc captured on Protein A, mAb injected
T10 construct: Secreted from 293-F cells, purified on protein G; also called Notch1-NRR-TM(-)/Fc; N1-NRR-TM(-)Fc protein; not shown: Human Fc of the Fc-fusion vector, fused C-terminal of the immunogen, plus any junction residues
T10 chain: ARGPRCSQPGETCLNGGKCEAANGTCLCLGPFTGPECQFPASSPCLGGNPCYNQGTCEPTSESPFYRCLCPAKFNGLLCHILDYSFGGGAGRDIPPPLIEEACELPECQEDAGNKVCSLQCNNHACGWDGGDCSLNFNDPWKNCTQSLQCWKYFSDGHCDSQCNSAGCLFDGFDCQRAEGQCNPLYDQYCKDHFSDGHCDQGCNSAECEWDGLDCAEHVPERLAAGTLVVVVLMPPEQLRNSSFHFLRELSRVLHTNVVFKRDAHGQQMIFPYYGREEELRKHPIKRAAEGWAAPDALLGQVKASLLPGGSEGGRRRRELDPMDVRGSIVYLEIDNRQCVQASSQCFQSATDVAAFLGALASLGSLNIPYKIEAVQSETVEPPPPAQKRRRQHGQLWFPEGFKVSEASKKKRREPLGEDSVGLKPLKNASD
Experimental: Protein A was amine-coupled at saturating levels onto the chip using a standard N-hydroxysuccinimide/ethyldimethylaminopropyl carbodiimide (NHS/EDC) chemistry. N1-NRR-TM(−)Fc protein (described in Example 1) was captured to the chip surface by Protein A in all three flow cells at 40, 13, 4 ug/ml. […] Dissociation was monitored for 20 minutes. The chip was regenerated after the last injection of each titration with two 30 second pulses of 100 mM phosphoric acid. Buffer cycles provided blanks for double-referencing the data, which were then fit globally to a simple binding model using Biaevaluation software v.4.1. Affinities were deduced from the quotient of the kinetic rate constants (KD=koff/kₒₙ).

- IC50 of cell growth inhibition, HPB-ALL cells, 7 days (Notch1 of HPB-ALL cells): ~0.78 µg/ml and ~5.2 nM
- binding result (murine Notch1-NRRHD [1]): no binding
- ELISA reading [2]: 3.52
- ELISA reading [3]: 0.05
- ELISA reading [4]: 3.51
- ELISA reading [5]: 0.04
- ELISA reading [6]: 3.48
- ELISA reading [7]: 3.17
- ELISA reading (human Notch1-NRRHD): 3.13
- ELISA reading (murine Notch1-NRRHD [8]): 0.17
- ELISA reading [9]: 3.37
- Kd [10]: < 0.33 nM
- koff [10]: < 0.00017 s⁻¹
B1: mouse monoclonal antibody N248A (antibody, IgG1, V domains shown)
VH: QVQLQQSGAELMKPGASVKISCKATGYTFSNYWMEWVKQRPGHGLEWIGEILPGRGRTNYNENFKGKATFTADTSSNTVYMQLNSLTSEDSAVYYCARFHSSAYYYTMDYWGQRTSVTVSS
VL: QAVVTQESALTTSPGETVTLTCRSSTGAVTTSNYANWVQEKPDHLFTGLIGGTNNRAPGIPARFSGSLIGDKAALTITGAQTEDEAIYFCALWYSNHWVFGGGTKLTVL
notes: treated as one antibody; also called mAb N248A; N248A1
